# Values of other authors, collected in US11207433B2, “Imaging agents and uses thereof” (Washington University, priority 2018, dated 2021).
# Bridges are numbered along the chain shown (N, C = ends). Where no end group is shown, it is not given here.
# Target: T1, NPR-C receptor (Homo sapiens, UniProt P17342)
# T1 sequence (P17342 27-541): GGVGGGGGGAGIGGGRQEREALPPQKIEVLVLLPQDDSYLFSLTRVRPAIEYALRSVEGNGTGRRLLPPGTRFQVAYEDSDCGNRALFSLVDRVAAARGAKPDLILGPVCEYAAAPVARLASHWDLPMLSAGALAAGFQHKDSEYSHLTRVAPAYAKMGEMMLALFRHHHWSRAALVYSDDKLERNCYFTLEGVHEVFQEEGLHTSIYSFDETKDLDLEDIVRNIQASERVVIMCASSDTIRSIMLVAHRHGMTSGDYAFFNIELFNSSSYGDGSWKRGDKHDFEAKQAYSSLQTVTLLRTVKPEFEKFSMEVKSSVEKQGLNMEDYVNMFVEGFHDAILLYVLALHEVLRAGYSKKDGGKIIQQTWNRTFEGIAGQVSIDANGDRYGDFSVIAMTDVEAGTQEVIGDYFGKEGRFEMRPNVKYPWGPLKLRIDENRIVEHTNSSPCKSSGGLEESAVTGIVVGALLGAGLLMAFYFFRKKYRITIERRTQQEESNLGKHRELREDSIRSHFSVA
# Details: in vivo
substance,measurement,value
"^64Cu-DOTA-CANF-Comb: CANF peptide functionalized polymeric nanoparticle, described in U.S. Patent Application Publication No. 2011/0300071 (RSSCFGGRIDRIGAC-NH2; disulfide 4-15; also: conjugated to polymeric nanoparticle, DOTA chelator, 64Cu label)",delay from injection to optimal PET imaging time,~12 h
